# Assay results as given in publication PMC12193089, “Genome-Wide Identification, Plasma Membrane Localization, and Functional Validation of the SUT Gene Family in Yam (Dioscorea cayennensis subsp. rotundata)” (International Journal of Molecular Sciences, 2025).
# B1: DrSUT1 (Dioscorea cayenensis subsp. rotundata) (protein)
# chain: MDAVSIRVPYRNLKEAELELEMGHLNGDPSGEIHDLGSRPSGGLPPSFPSASPSSPDEYGSSDASHRSQPRSSMKTLVLSCIVAAGVQFGWALQLSLLTPYIQTLGIEHAFSSFIWLCGPITGFIVQPCVGIWSDKCTLKLGRRRPFILAGSLMISFAVILIGFAADIGYLLGDTDQDCRSYKGPRWRAAAIFVIGFWMLDLANNTVQGPARALLADLSGPDQCNSANAIFCSWMALGNILGFSSGANGNWHRWFPFLTTKACCEACGNLKAAFLVAVIFLMFCTFVTLYFAKEVPLEAKPTQQFSDGAPLLNDKQQHGHRGSPTNSPKLENGEKLSVDLMADKASSRNPSNFDRNAKNDEMEALSDGPGAVLVKLLTSLRHLPPGMYSVLLVMALTWSSWFPFFLFDTDWMGREVYRGDPSGTESEIGSYQKGVRDGAFGLLLNSVVLLVASFLIDPICRRMGARMVWAMSNFIVFICMAATTIISLWSINEHLTGIQHVVGANKAVRVGALVIFSLLGFPLAITYSVPFSVTAELTADSGGGQGLATGVLNLAIVIPQMVVALGAGPWDALFGGGNIPAFALASAFALAASFLAFKRLPTLSGSYSSVGFHGFG
# notes: no tag told
# Substrate: OC[C@H]1O[C@@](CO)(O[C@H]2O[C@H](CO)[C@@H](O)[C@H](O)[C@H]2O)[C@@H](O)[C@@H]1O
# Test: cells, lysate or membranes
# Format: cell-based, Dioscorea cayenensis
# Conditions: PBS pH 5.5, 30 °C, labelled compound, methods print a final sucrose concentration of 100 mM, at odds with a μM Km
protein,measurement,value
B1,Km,76.69 µM
